# Measured values as given in publication PMC9084231.
# What was measured:
# [1] = target: PRP6-HO7 (Proline-rich Protein domain CCP6 heptamerized) (human) (UniProt P04003); experiment: SDS-PAGE under reducing and non-reducing conditions; 4-12% gradient SDS-PAGE of the purified proteins, Coomassie (Blue Safe) staining and Western blot with anti-6xHis and anti-C4BP α-chain antibodies; reduced against non-reduced size
# Protein S (Homo sapiens) = Protein S (Homo sapiens) (UniProt P07225); conditions: cited from earlier work
# Chain of UniProt P07225 (P07225 42-676): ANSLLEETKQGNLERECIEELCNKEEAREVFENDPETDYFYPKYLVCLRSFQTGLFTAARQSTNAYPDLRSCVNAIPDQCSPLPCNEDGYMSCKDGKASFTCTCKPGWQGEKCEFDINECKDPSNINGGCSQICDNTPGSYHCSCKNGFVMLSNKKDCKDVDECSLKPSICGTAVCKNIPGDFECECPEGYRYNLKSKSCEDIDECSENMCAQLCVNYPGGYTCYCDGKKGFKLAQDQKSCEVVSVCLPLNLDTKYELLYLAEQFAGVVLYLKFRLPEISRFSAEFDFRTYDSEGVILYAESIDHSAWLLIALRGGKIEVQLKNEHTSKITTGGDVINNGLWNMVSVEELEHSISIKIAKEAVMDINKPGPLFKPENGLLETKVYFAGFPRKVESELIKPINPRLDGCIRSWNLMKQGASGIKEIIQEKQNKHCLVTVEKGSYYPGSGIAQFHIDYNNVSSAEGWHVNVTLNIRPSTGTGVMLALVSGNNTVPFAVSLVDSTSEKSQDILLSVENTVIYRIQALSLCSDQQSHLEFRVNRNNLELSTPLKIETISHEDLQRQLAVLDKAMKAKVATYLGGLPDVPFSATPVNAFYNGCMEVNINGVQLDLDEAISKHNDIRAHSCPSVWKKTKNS
stoichiometry N [1],Substance,Kd (Protein S (Homo sapiens)) [nM]
7,PRP6-HO7 (Proline-rich Protein domain CCP6 heptamerized) (from UniProt P04003 540-597),–
–,C4BP beta-chain CCP1 (from UniProt P20851),0.1
